Results taken from patent US20150167014A1, “MODULATION OF PLANT GROWTH BY VAS1 MUTATION” (THE SALK INSTITUTE FOR BIOLOGICAL STUDIES, priority 2013, published 2015).
Residue numbers refer to the chain shown, from its start. Names and notes keep the numbering of the source.

Legend:
[1] = substrate: N[C@@H](Cc1c[nH]cn1)C(=O)O; assay: Steady-state kinetic assay of VAS1 I267M transaminase activity (rate of loss of IPA at 321 nm); format: biochemical, Arabidopsis thaliana; settings: other: fixed 3-IPA 300 μM, variable L-His 0.1 to 10 mM, 0.4 μM VAS1 I267M, 100 μM PLP, pH 8.0, 23° C.
Procedure: (§1) FIG. 9A-B. Steady-state kinetic analyses of VAS1 I267M. […] Fixed concentration of L-His (10 mM) and variable concentrations of 3-IPA from 10 to 200 μM (A) Fixed concentration of 3-IPA (300 μM) and variable concentrations of L-His from 0.1 to 10 mM (B). Apparent KM, Vmax and kcat of VAS1 are shown above each curve and standard errors calculated from Graphpad Prism 5 software (www.graphpad.com).
(§2) The coding sequence of AtVAS1 was inserted between the NcoI and XhoI sites of the expression vector pHIS8 (“HIS8” disclosed as SEQ ID NO: 1) (a modified version of pET28a (+) containing an N-terminal 8-histidine tag (SEQ ID NO: 1)), which under the control of a T7 promoter. E. coli (BL21) cells harboring the AtVAS1 expression vector were grown in Terrific Broth at 37° C. until reaching an OD600 nm of 1.0 then cooled down to 18° C. and induced with 0.5 mM isopropyl-b-D-thiogalactoside (IPTG) and allowed to grow overnight at 18° C. for approximately 12-14 hr after. Cells were harvested by centrifugation and resuspended in lysis buffer (50 mM Tris-HCl, pH 8.0, 500 mM NaCl, 20 mM imidazole, 1% (v/v) Tween-20, 10% (v/v) glycerol, 10 mM 2-mercaptoethanol) containing lysozyme (0.5 mg/ml) at 4° C. for 1 hr and lysed by sonication. The lysate was centrifuged at 18,000 rpm for 45 min at 4° C. and then the supernatant were passed over Ni2+-NTA agarose (Qiagen). The AtVAS1 protein was eluted with lysate buffer supplemented with 250 mM imidazole after washed with wash buffer (lysis buffer without Tween-20 and glycerol). The N-terminal tag was cleaved by treatment with thrombin while dialyzing overnight in dialysis buffer (50 mM Tris-HCl, (pH8.0), 500 mM NaCl, 20 mM 2-mercaptoethanol). The thrombin and uncut AtVAS1 was removed by passing over Benzamidine Sepharose 4 Fast Flow (high sub) (GE Healthcare) and Ni2+-NTA agarose. AtVAS1 was further purified by size-exclusion chromatography using a Superdex 200 HR16/60 column. AtVAS1 fractions were combined, concentrated to approximately 12 mg ml-1 and frozen at −80° C. […]
(§3) For VAS1 I267M steady-state kinetic assays, 1 mL assay mixture contained 100 mM sodium phosphate buffer (pH 8.0), 0.4 μM recombinant VAS1 I 267M, 100 μM PLP and variable amounts of His (0.1 to 10 mM) and IPA (10 to 200 μM). The reactions were incubated at 23° C. and the OD321 nm were measured at 2-min, 5-min, 8-min, 10-min, 12-min and 15-min time points to monitor the linear rate of loss of IPA. Absorbance values were corrected to changes in IPA concentration based on an IPA standard curve. At 321 nm, absorbance from Trp was negligible. KM, kcat and Vmax were calculated by nonlinear regression analysis using GraphPad Prism 5 fits to the Michaelis-Menten equation.

[2] = substrate: O=C(O)C(=O)Cc1c[nH]c2ccccc12; assay: as above; format: biochemical, Arabidopsis thaliana; settings: other: fixed L-His 10 mM, variable 3-IPA 10 to 200 μM, 0.4 μM VAS1 I267M, 100 μM PLP, pH 8.0, 23° C.
Procedure: as §1, §2, §3

[3] = Amino donor test of VAS1 variants (19 amino acids, 3-IPA as amino acceptor); format: biochemical, Arabidopsis thaliana; settings: 19 natural amino acids (except Trp) as amino donor
Procedure: VAS1 and its variants transaminase activity was monitor by HPLC-MS with an Agilent 1100 series LC-MSD instrument and an Agilent Zorbax Eclipse XDB-C18 (4.6×150 mm, […]) reversed-phase column. Chromatographic separations employed a flow rate of 0.5 mL min-1 and a linear gradient with initial and final mobile phases consisting of 95% water: 4.9%: acetonitrile: 0.1% formic acid (v/v/v), and 5% water: 94.9% acetonitrile: 0.1% formic acid (v/v/v), respectively. VAS1 mutants relative activity assays were conducted in a 200 μL volume containing 50 mM L-Met (with the exception of L-Trp), 10 mM IPA, 200 μM PLP and 10 μg of purified VAS1 or VAS1 variants protein in a reaction buffer consisting of 50 mM K2HPO4/KH2PO4 (pH 8.5). To further test the best amino donor of I267M and I267F mutant, one of 19 other amino acids (with the exception of L-Trp) was taking the place of L-Met. […] Relative specific activities were calculated after integration of the Trp peak (based on the absorbance at 254 nm) and the activity against Met and IPA was arbitrarily set to 100% for VAS1 variants M19V, M19I, M19F, I267V, 1267 M and I267F. […]

[4] = molecular target: the molecule itself; assay: X-ray crystal structure of VAS1•PLP complex

B1: Arabidopsis thaliana aminotransferase VAS1 (AtVAS1, NCBI Accession No. NP—178152, SEQ ID NO: 14), variant I267M (Ile267Met) (Arabidopsis thaliana; I267M) (protein)
chain: MGSFGMLSRRTLGTDMPVMAQIRSLMAELTNPMSLAQGVVHWQPPQKALEKVKELVWDPIISSYGPDEGLPELRQALLKKLREENKLTNSQVMVTAGANQAFVNLVITLCDAGDSVVMFEPYYFNSYMAFQMTGVTNIIVGPGQSDTLYPDADWLERTLSESKPTPKVVTVVNPGNPSGTYVPEPLLKRIAQICKDAGCWLIVDNTYEYFMYDGLKHCCVEGDHIVNVFSFSKTYGMMGWRLGYIAYSERLDGFATELVKIQDNIPMCAAIISQRLAVYALEEGSGWITERVKSLVKNRDIVKEALEPLGKENVKGGEGAIYLWAKLPEGHRDDFKVVRWLAHRHGVVVIPGCASGSPGYLRVSFGGLQEVEMRAAAARLRKGIEELLHHGMVE
notes: I267M by QuikChange mutagenesis
[1]
  Km: 534 µM
  kcat: 0.0392 s⁻¹
[2]
  Km: 62.4 µM
  kcat: 0.0447 s⁻¹

B2: VAS1: wild-type pyridoxalphosphate-dependent aminotransferase of Arabidopsis thaliana (protein)
chain: B1 chain with M267I
[3]
  aminotransferase activity / most efficient amino donor: Met is the most suitable amino donor

B3: Arabidopsis thaliana aminotransferase VAS1 (enzyme)
chain: B1 chain with M267I
modifications: PLP (pyridoxal phosphate) bound as internal aldimine to the epsilon-amino group of Lys 233
notes: The protein crystallised as a symmetric homodimer with PLP; also called AtVAS1
[4]
  binding result: binds
